Assay results taken from patent publication US20190033295A1 (MEDICINAL BIOCONVERGENCE RESEARCH CENTER, published 2019).
Blank lines part the entries; values can stand above or below the binder they belong to.

Key:
HSP70 protein [1] = target: T1, HSP70 protein (human, UniProt P0DMV8 1-641, limits assumed); experiment: IP of H460 cell lysate with Hsp70 antibody, western blot
T1 construct: Untagged HSP70: endogenous in H460 and 293T cells (co-IP, western blot with HSP70 antibody) and the purified protein fixed on the SPR chip; The construct of the purified protein is not described; also called heat shock protein 70; endogenous HSP70
Method: H460 cells were treated with […] (EGF (Peprotech)) for 30 minutes, and then lysed with IP buffer (50 mM Tris (pH7.4), 100 mM NaCl, 10% Glycerol, 1 mM EDTA, 0.5% TritonX-100, PBS) at 4° C. for 30 minutes. […] Actin (Sigma) means loading control, and WCL means whole cell lysate.

GFP-HSP70 = target: T2, GFP-HSP70 (human, UniProt P0DMV8 1-641); experiment: confocal microscopy of 293T cells overexpressing both
T2 construct: Overexpressed in 293T or H460 cells; order of the parts as in the printed name; also called GFP-HSP70 full; not shown: GFP
Method: After EGF treatment, the cells were washed 3 times with cold PBS, and were fixed with cold methanol for 10 minutes. After fixation, the cells were washed 3 times with cold PBS, and nuclei were stained with DAPI (Invitrogen) solution. After staining, each fluorescence was observed using confocal microscopy.

HSP70 protein [2] = target: T1, HSP70 protein; experiment: strep-tag column IP of 293T lysate overexpressing Strep-AIMP2-DX2, western blot
Method: After the cells were lysed in the same manner as described above, IP was performed using a Strep-tag column (GE Helathcare).

HSP90B1 = target: T3, HSP90B1 (UniProt P14625 22-803); experiment: strep-tag column pull-down from 293T lysate, LC-mass spectrometry
T3 construct: Identified by mass spectrometry of tryptic peptides
Method: (§1) Separated proteins were degraded to their peptide levels by in-gel digestion using trypsin (Hyclone), and these peptides were analyzed by LC-mass spectrometry (Thermo) (FIG. 1A).
(§2) Cell lysis was performed by incubating at 4° C. for 30 min with an appropriate amount of lysis buffer (50 mM Tris(pH7.4), 100 mM NaCl, 10% Glycerol, 1 mM EDTA, 0.5% TritonX-100, PBS). And, lysed cell lysate was centrifuged at 13,200 rpm for 15 minutes. After […] the supernatant from the cell lysate, the supernatant was passed through a strep-tag column (thermo). After passing the supernatant, the proteins bound to the column were eluted by using elution buffer, and then the collected proteins were separated by SDS-PAGE.

HSPA2 = target: T4, HSPA2 (UniProt P54652 1-639); experiment: as above
T4 construct: Identified by mass spectrometry of tryptic peptides
Method: as §1, §2

HSPA1L = target: T5, HSPA1L (UniProt P34931 1-641); experiment: as above
T5 construct: Identified by mass spectrometry of tryptic peptides
Method: as §1, §2

HSPA9 = target: T6, HSPA9 (UniProt P38646 47-679); experiment: as above
T6 construct: Identified by mass spectrometry of tryptic peptides
Method: as §1, §2

HSPA5 = target: T7, HSPA5 (UniProt P11021 19-654); experiment: as above
T7 construct: Identified by mass spectrometry of tryptic peptides
Method: as §1, §2

T1 sequence (P0DMV8 whole entry): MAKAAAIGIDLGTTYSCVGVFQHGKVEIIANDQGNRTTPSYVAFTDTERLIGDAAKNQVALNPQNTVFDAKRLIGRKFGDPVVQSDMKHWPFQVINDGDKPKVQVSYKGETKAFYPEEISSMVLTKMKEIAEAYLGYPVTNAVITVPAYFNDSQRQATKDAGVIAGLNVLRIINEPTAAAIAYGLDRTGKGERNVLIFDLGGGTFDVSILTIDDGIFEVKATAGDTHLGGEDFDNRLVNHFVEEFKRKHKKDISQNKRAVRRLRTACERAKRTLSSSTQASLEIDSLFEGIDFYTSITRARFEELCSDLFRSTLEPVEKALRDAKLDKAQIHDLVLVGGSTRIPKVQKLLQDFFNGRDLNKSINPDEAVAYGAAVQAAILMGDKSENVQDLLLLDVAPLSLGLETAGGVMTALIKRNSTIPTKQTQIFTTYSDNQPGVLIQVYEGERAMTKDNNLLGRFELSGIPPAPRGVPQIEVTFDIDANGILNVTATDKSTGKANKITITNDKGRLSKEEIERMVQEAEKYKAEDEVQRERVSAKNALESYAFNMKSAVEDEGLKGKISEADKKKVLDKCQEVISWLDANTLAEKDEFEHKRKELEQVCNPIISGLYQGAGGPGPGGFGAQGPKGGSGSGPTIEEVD
T7 sequence (P11021 19-654 limits assumed): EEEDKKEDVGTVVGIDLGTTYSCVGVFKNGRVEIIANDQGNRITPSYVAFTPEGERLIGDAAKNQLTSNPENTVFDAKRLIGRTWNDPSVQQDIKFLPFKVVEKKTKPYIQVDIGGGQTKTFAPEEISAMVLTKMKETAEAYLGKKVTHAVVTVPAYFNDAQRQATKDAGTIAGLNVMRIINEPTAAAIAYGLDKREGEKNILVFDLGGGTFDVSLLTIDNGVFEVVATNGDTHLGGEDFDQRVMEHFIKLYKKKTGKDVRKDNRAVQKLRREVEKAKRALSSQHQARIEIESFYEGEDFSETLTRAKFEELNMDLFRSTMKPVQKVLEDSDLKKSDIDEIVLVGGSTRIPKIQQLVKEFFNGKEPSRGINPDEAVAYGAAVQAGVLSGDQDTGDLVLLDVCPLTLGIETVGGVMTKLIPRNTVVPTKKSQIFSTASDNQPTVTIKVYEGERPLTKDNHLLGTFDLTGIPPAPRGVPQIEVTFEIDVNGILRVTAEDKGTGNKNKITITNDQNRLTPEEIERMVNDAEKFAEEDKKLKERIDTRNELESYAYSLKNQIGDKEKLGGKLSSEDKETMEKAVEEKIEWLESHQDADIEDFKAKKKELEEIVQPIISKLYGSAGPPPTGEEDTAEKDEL
T4 sequence (P54652 whole entry): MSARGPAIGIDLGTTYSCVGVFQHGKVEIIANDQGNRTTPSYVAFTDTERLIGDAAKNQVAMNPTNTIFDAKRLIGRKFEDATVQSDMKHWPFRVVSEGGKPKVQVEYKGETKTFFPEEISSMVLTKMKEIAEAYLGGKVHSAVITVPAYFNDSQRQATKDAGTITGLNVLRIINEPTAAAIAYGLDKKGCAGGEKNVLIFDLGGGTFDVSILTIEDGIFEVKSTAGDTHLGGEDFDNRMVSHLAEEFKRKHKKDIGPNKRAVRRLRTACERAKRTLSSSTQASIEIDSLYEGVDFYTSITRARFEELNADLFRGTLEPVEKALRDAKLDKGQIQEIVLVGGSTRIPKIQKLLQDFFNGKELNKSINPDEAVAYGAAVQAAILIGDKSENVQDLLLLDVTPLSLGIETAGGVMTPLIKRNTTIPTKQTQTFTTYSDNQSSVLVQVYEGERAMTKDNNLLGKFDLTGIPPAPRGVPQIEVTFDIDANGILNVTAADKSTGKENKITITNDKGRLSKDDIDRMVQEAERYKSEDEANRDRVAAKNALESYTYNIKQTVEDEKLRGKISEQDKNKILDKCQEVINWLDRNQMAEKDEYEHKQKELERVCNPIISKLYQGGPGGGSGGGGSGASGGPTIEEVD
T6 sequence (P38646 47-679 limits assumed): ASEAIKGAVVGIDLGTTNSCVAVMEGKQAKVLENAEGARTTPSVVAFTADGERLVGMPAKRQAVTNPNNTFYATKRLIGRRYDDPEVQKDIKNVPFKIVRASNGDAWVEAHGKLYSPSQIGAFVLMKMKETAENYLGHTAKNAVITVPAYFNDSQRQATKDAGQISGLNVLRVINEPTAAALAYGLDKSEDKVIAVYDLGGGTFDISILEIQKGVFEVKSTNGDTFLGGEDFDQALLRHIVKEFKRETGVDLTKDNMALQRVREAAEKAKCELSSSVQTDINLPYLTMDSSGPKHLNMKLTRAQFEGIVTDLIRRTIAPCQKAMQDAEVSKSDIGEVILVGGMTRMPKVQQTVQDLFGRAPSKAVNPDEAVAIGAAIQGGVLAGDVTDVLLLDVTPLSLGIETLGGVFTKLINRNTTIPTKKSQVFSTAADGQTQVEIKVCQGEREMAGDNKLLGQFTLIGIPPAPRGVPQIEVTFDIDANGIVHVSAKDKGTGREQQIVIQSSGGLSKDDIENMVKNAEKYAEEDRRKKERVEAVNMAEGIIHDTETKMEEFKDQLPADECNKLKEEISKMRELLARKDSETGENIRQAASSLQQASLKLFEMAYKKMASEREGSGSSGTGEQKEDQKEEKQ
T5 sequence (P34931 whole entry): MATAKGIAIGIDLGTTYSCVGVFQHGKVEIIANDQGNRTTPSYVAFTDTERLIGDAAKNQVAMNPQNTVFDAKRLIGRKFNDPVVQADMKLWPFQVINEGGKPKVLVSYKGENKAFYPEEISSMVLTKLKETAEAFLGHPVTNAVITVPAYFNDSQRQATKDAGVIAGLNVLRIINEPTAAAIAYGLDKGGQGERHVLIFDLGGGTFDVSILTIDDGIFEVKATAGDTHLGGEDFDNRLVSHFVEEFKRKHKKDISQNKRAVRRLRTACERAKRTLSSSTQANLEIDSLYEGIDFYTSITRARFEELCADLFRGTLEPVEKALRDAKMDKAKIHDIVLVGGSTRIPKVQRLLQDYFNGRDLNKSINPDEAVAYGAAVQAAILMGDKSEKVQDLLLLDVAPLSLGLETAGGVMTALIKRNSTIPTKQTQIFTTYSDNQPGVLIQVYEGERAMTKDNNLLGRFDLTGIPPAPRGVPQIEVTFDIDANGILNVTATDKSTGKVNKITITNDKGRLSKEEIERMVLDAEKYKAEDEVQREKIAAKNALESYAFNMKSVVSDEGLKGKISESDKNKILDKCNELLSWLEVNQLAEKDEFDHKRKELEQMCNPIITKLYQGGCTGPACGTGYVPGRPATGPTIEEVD
T2 sequence (P0DMV8 whole entry): as the sequence (P0DMV8 whole entry) above
T3 sequence (P14625 22-803 limits assumed): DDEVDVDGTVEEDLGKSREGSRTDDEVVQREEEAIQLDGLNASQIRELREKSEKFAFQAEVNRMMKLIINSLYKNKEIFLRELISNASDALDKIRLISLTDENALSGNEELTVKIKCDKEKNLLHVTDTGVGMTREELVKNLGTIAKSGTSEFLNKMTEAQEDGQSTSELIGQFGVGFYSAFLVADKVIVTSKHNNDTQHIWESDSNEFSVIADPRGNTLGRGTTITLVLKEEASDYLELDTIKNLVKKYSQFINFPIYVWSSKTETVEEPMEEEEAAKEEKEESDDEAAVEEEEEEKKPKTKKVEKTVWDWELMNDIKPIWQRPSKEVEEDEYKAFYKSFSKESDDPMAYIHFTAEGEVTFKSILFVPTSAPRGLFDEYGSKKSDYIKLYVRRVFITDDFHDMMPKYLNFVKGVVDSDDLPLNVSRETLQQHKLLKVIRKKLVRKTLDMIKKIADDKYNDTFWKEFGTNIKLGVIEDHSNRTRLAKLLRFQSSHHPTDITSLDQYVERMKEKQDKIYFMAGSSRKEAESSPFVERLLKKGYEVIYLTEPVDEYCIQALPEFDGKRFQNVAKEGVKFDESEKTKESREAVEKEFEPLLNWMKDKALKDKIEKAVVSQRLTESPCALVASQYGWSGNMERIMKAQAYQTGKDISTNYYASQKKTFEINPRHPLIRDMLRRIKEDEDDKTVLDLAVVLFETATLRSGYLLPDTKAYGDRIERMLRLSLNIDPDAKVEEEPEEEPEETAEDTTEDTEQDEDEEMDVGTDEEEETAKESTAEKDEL

B1: AIMP2-DX2 protein (other)
chain: MPMYQVKPYHGGGAPLRVELPTCMYRLPNVHGRSYGPAPGAGHVQDYGALKDIVINANPASPPLSLLVLHRLLCEHFRVLSTVHTHSSVKSVPENLLKCFGEQNKKQPRQDYQLGFTLIWKNVPKTQMKFSIQTMCPIEGEGNIARFLFSLFGQKHNAVNATLIDSWVDIAIFQLKEGSSKEKAAVFRSMNSALGKSPWLAGNELTVADVVLWSVLQQIGGCSVTVPANVQRWMRSCENLAPFNTALKLLK
notes: Untagged AIMP2-DX2: endogenous in H460 cells (IP with Hsp70 antibody) and the purified protein flowed in SPR
binding result (HSP70 protein [1]): binds

B2: RFP-AIMP2-DX2 (other)
chain: MPMYQVKPYHGGGAPLRVELPTCMYRLPNVHGRSYGPAPGAGHVQDYGALKDIVINANPASPPLSLLVLHRLLCEHFRVLSTVHTHSSVKSVPENLLKCFGEQNKKQPRQDYQLGFTLIWKNVPKTQMKFSIQTMCPIEGEGNIARFLFSLFGQKHNAVNATLIDSWVDIAIFQLKEGSSKEKAAVFRSMNSALGKSPWLAGNELTVADVVLWSVLQQIGGCSVTVPANVQRWMRSCENLAPFNTALKLLK
notes: Overexpressed in 293T cells; order of the parts as in the printed name; not shown: RFP
binding result (GFP-HSP70): binds

B3: Strep-AIMP2-DX2 (other)
chain: MPMYQVKPYHGGGAPLRVELPTCMYRLPNVHGRSYGPAPGAGHVQDYGALKDIVINANPASPPLSLLVLHRLLCEHFRVLSTVHTHSSVKSVPENLLKCFGEQNKKQPRQDYQLGFTLIWKNVPKTQMKFSIQTMCPIEGEGNIARFLFSLFGQKHNAVNATLIDSWVDIAIFQLKEGSSKEKAAVFRSMNSALGKSPWLAGNELTVADVVLWSVLQQIGGCSVTVPANVQRWMRSCENLAPFNTALKLLK
notes: Overexpressed in 293T cells; The tag is put first as in the printed name; also called Strep-DX2; exogenous AIMP2-DX2; not shown: Strep tag from the pEXPR-IBA5 vector
binding result (HSP70 protein [2]): binds | binding result (HSP90B1): no binding

Other lines, results leading:

binding result (HSP70 protein [1]): no binding
B4: AIMP2 (other, UniProt Q13155 1-320, looked up)
chain: MPMYQVKPYHGGGAPLRVELPTCMYRLPNVHGRSYGPAPGAGHVQEESNLSLQALESRQDDILKRLYELKAAVDGLSKMIQTPDADLDVTNIIQADEPTTLTTNALDLNSVLGKDYGALKDIVINANPASPPLSLLVLHRLLCEHFRVLSTVHTHSSVKSVPENLLKCFGEQNKKQPRQDYQLGFTLIWKNVPKTQMKFSIQTMCPIEGEGNIARFLFSLFGQKHNAVNATLIDSWVDIAIFQLKEGSSKEKAAVFRSMNSALGKSPWLAGNELTVADVVLWSVLQQIGGCSVTVPANVQRWMRSCENLAPFNTALKLLK
notes: Endogenous protein in H460 cell lysate; also called p38/JTV-1

binding result (HSPA2): no binding | binding result (HSPA1L): no binding | binding result (HSPA9): no binding | binding result (HSPA5): no binding
B5: strep-AIMP2 (other, UniProt Q13155 1-320, looked up)
chain: MPMYQVKPYHGGGAPLRVELPTCMYRLPNVHGRSYGPAPGAGHVQEESNLSLQALESRQDDILKRLYELKAAVDGLSKMIQTPDADLDVTNIIQADEPTTLTTNALDLNSVLGKDYGALKDIVINANPASPPLSLLVLHRLLCEHFRVLSTVHTHSSVKSVPENLLKCFGEQNKKQPRQDYQLGFTLIWKNVPKTQMKFSIQTMCPIEGEGNIARFLFSLFGQKHNAVNATLIDSWVDIAIFQLKEGSSKEKAAVFRSMNSALGKSPWLAGNELTVADVVLWSVLQQIGGCSVTVPANVQRWMRSCENLAPFNTALKLLK
notes: Overexpressed in 293T cells; not shown: Strep tag from the pEXPR-IBA5 vector
